Patent publication US20170260249A1 (IMMATICS BIOTECHNOLOGIES, published 2017)

B1: GLGPNLVGV (SEQ ID NO: 23) (peptide)
peptide: GLGPNLVGV
notes: synthetic peptide; source genes SLC25A36, SLC25A33
B2: ILLELFTHV (SEQ ID NO: 25) (peptide)
peptide: ILLELFTHV
notes: synthetic peptide; source genes FBXO6, FBXO44

Target: HLA-A*02:01 (peptide-receptive MHC class I molecule, heavy chain with beta-2-microglobulin) (human)
Test: UV-ligand exchange, anti-b2m ELISA; peptide exchange yield grade (>10% = +; >20% = ++; >50 = +++; >75% = ++++)
From the text: Candidate peptides for T cell based therapies according to the present invention were further tested for their MHC binding capacity (affinity). The individual peptide-MHC complexes were produced by UV-ligand exchange, where a UV-sensitive peptide is cleaved upon UV-irradiation, and exchanged with the peptide of interest as analyzed. Only peptide candidates that can effectively bind and stabilize the peptide-receptive MHC molecules prevent dissociation of the MHC complexes. To determine the yield of the exchange reaction, an ELISA was performed based on the detection of the light chain (β2m) of stabilized MHC complexes. The assay was performed as generally described in Rodenko et al. (Rodenko et al., 2006).
96 well MAXISorp plates (NUNC) were coated over night with 2 ug/ml streptavidin in PBS at room temperature, washed 4× and blocked for 1 h at 37° C. in 2% BSA containing blocking buffer. Refolded HLA-A*02:01/MLA-001 monomers served as standards, covering the range of 15-500 ng/ml. Peptide-MHC monomers of the UV-exchange reaction were diluted 100 fold in blocking buffer. Samples were incubated for 1 h at 37° C., washed four times, incubated with 2 ug/ml HRP conjugated anti-β2m for 1 h at 37° C., washed again and detected with TMB solution that is stopped with […]. Absorption was measured at 450 nm. Candidate peptides that show a high exchange yield (preferably higher than 50%, most preferred higher than 75%) are generally preferred for a generation and production of antibodies or fragments thereof, and/or T cell receptors or fragments thereof, as they show sufficient avidity to the MHC molecules and prevent dissociation of the MHC complexes.

Binder	peptide exchange yield
KLLDNLHDL (synthetic peptide; source gene PGR) [KLLDNLHDL (SEQ ID NO: 1)]	> 75%
AILDVVVNL (synthetic peptide; source gene RFX3) [AILDVVVNL (SEQ ID NO: 10)]	> 75%
ALDPIIHGL (synthetic peptide; source gene PTPRG) [ALDPIIHGL (SEQ ID NO: 11)]	> 75%
ALAPSEGVQAA (synthetic peptide; source gene MSX1) [ALAPSEGVQAA (SEQ ID NO: 12)]	> 75%
ALQNKVVAL (synthetic peptide; source gene NXNL2) [ALQNKVVAL (SEQ ID NO: 13)]	50 to 75%
FLVDSLISA (synthetic peptide; source gene HOXD10) [FLVDSLISA (SEQ ID NO: 14)]	> 75%
GLLSVELRV (synthetic peptide; source gene DCHS2) [GLLSVELRV (SEQ ID NO: 15)]	> 75%
KLNSSIQYV (synthetic peptide; source gene PKHD1L1) [KLNSSIQYV (SEQ ID NO: 16)]	50 to 75%
KLWEESTAQV (synthetic peptide; source gene C1orf173) [KLWEESTAQV (SEQ ID NO: 17)]	50 to 75%
YLETMNITL (synthetic peptide; source gene PGM2L1) [YLETMNITL (SEQ ID NO: 19)]	50 to 75%
ALLGFVTDL (synthetic peptide; source gene ATP2B4) [ALLGFVTDL (SEQ ID NO: 20)]	> 75%
VLLDIFTGV (synthetic peptide; source gene LIG3) [VLLDIFTGV (SEQ ID NO: 2)]	> 75%
VLGPEGQLV (synthetic peptide; source gene GLYATL2) [VLGPEGQLV (SEQ ID NO: 21)]	50 to 75%
VLVSSVLGV (synthetic peptide; source gene SIGIRR) [VLVSSVLGV (SEQ ID NO: 22)]	50 to 75%
B1	> 75%
ILDAQTAFV (synthetic peptide; source gene ABCC1) [ILDAQTAFV (SEQ ID NO: 24)]	50 to 75%
B2	> 75%
SVLAGVVGV (synthetic peptide; source gene GUCY1A2) [SVLAGVVGV (SEQ ID NO: 26)]	> 75%
VLNPETTVV (synthetic peptide; source gene PAPSS1) [VLNPETTVV (SEQ ID NO: 27)]	50 to 75%
GLDEAIRKV (synthetic peptide; source gene GLYATL2) [GLDEAIRKV (SEQ ID NO: 28)]	50 to 75%
IGIGPVLNI (synthetic peptide; source gene TMLHE) [IGIGPVLNI (SEQ ID NO: 29)]	10 to 20%
TLLDRVAVI (synthetic peptide; source gene FRG1B) [TLLDRVAVI (SEQ ID NO: 30)]	50 to 75%
GLDGATYTV (synthetic peptide; source gene SEMA4C) [GLDGATYTV (SEQ ID NO: 3)]	50 to 75%
ALLTAVTNV (synthetic peptide; source gene LEMD2) [ALLTAVTNV (SEQ ID NO: 31)]	50 to 75%
GLIENTYQL (synthetic peptide; source gene RNF175) [GLIENTYQL (SEQ ID NO: 32)]	50 to 75%
SMTTNLDLKV (synthetic peptide; source gene TMEM202) [SMTTNLDLKV (SEQ ID NO: 33)]	20 to 50%
AIAGRLLGV (synthetic peptide; source gene CLCN5) [AIAGRLLGV (SEQ ID NO: 34)]	> 75%

Binder	peptide exchange yield
TLLPTLYEI (synthetic peptide; source gene RNF180) [TLLPTLYEI (SEQ ID NO: 35)]	50 to 75%
SLLSDIIAL (synthetic peptide; source gene PIGQ) [SLLSDIIAL (SEQ ID NO: 36)]	50 to 75%
VLLATVTEL (synthetic peptide; source gene SLC35E1) [VLLATVTEL (SEQ ID NO: 37)]	50 to 75%
RILDIDIPLSV (synthetic peptide; source gene TFCP2L1) [RILDIDIPLSV (SEQ ID NO: 38)]	50 to 75%
ALDGKIYEL (synthetic peptide; source gene ARHGAP5) [ALDGKIYEL (SEQ ID NO: 39)]	50 to 75%
GLLGGVIMMV (synthetic peptide; source gene SLC39A7) [GLLGGVIMMV (SEQ ID NO: 40)]	> 75%
RLDIQGTGQLL (synthetic peptide; source gene PIGR) [RLDIQGTGQLL (SEQ ID NO: 4)]	50 to 75%
YIDDIFSGV (synthetic peptide; source gene TEX9) [YIDDIFSGV (SEQ ID NO: 41)]	> 75%
FLSGYYVTL (synthetic peptide; source gene TMEM101) [FLSGYYVTL (SEQ ID NO: 42)]	> 75%
VIANEIEKV (synthetic peptide; source gene APOL4) [VIANEIEKV (SEQ ID NO: 43)]	50 to 75%
FLNGLEILL (synthetic peptide; source gene MDN1) [FLNGLEILL (SEQ ID NO: 44)]	> 75%
VLLHVSVLL (synthetic peptide; source gene ZDHHC24) [VLLHVSVLL (SEQ ID NO: 45)]	20 to 50%
NMDDVIYYV (synthetic peptide; source gene RNF145) [NMDDVIYYV (SEQ ID NO: 46)]	50 to 75%
GLVEQLYDL (synthetic peptide; source gene NOC2L) [GLVEQLYDL (SEQ ID NO: 47)]	50 to 75%
ILAETQPEL (synthetic peptide; source gene STX18) [ILAETQPEL (SEQ ID NO: 48)]	50 to 75%
ALLELLHEL (synthetic peptide; source gene LEMD2) [ALLELLHEL (SEQ ID NO: 49)]	> 75%
TLSTVIATV (synthetic peptide; source gene ATN1) [TLSTVIATV (SEQ ID NO: 50)]	> 75%
SLFDEVRQI (synthetic peptide; source gene STX18) [SLFDEVRQI (SEQ ID NO: 5)]	> 75%
TVPPVFVSV (synthetic peptide; source gene KCNMA1) [TVPPVFVSV (SEQ ID NO: 51)]	50 to 75%
ALISEKLETL (synthetic peptide; source gene DNAJC10) [ALISEKLETL (SEQ ID NO: 52)]	50 to 75%
VMHDSSFSV (synthetic peptide; source gene ADNP2) [VMHDSSFSV (SEQ ID NO: 53)]	> 75%
TLSDVVVGL (synthetic peptide; source gene ELP4) [TLSDVVVGL (SEQ ID NO: 54)]	50 to 75%
SLLSELVEA (synthetic peptide; source gene KLHDC5) [SLLSELVEA (SEQ ID NO: 6)]	> 75%
SILSLLIKL (synthetic peptide; source gene UBR3) [SILSLLIKL (SEQ ID NO: 7)]	20 to 50%
SVMELLQGV (synthetic peptide; source gene TRIM5) [SVMELLQGV (SEQ ID NO: 8)]	> 75%
SLYPGTETM (synthetic peptide; source gene SVIL) [SLYPGTETM (SEQ ID NO: 9)]	50 to 75%
